Tested on: MS2 coat protein
Assay: apparent KD of MS2 coat protein; designed switch direction (-1 OFF switch, 1 ON switch): -1; higher = weaker reporter binding
How it was run: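 An oligonucleotide input, 200 uM small-molecule ligand, or no input was present during titration of SNAP-549-labelled MS2 coat protein, which was doubled from 0.7 or 1.5 nM to 3 µM. Designed RNA switches had been transcribed on Illumina chips by stalled E. coli RNA polymerase. Apparent KD per design is the median over clusters of curves fitted to normalised cluster fluorescence.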

[1] = Eterna round: R95, input ligand: FMN 200 uM
[2] = Eterna round: R95, input ligand: microRNA oligo, concentration not stated
[3] = Eterna round: R95, input ligand: none
[4] = input ligand: microRNA oligo, concentration not stated

AGUACUAUCACGAAAGUGUUAGUACAAUAAGCUUGUGAAACAUGAGGAUCACCCAUGUCCUCAUAAGCUCGUCUUAU [salish99_TOv2_r3_019] (puzzle: Sensor v3, turn-off variant 2)
apparent KD of MS2 coat protein [1]: 16.9 nM | apparent KD of MS2 coat protein [2]: 868 nM | apparent KD of MS2 coat protein [3]: 15.7 nM

CAAGCUUUGCGAGGAUAUGAUGGCCUAUAUGCCUCAGAAGGCGCAGAUACUUGAGGAUCACCCAAGUGAUGCAAAUACGAAAAU [Mutated MS2 EX1.17] (Eterna round: R96, puzzle: Exclusion NG 1)
apparent KD of MS2 coat protein (input ligand: FMN 200 uM): 71.3 nM | apparent KD of MS2 coat protein [4]: 17.4 nM | apparent KD of MS2 coat protein (input ligand: none): 20 nM

CUUUUGUGAGGAUAUUAGUAGUAAAUAAAUAAAAUUACUACUUAGAAGGCACAUGAGGAUCACCCAUGUUCCUC [salish99_ex4_r3_043] (puzzle: Exclusion 4)
apparent KD of MS2 coat protein [2]: 28.3 nM

CUCGUGCAGCAAAGCUGUACGAGUACAUGAGGAUCACCCAUGUAGGAUAUGGUACGCAAAGCGUGCUAGAAGGAUAUGUGAAAG [Mat - Exclusion NG 3 - Mod of JL - D89] (Eterna round: R96, puzzle: Exclusion NG 3)
apparent KD of MS2 coat protein (input ligand: FMN 200 uM): 44.2 nM | apparent KD of MS2 coat protein [4]: 31.4 nM | apparent KD of MS2 coat protein (input ligand: none): 49.9 nM

UUUGCAAGCUUAUGAUCCCACAUGAGGAUCACCCAUGUUGCUGCCGGUGACGGUAGCAUAACAUAUGCUCGUCUUAU [JL TOV1 3.63] (Eterna round: R97, puzzle: Sensor, turn-off variant 1)
apparent KD of MS2 coat protein (input ligand: FMN 200 uM): 791 nM | apparent KD of MS2 coat protein (input ligand: none): 1170 nM

AGACGGUGAGGAUAUAGACGCAAUCACAUGAGGAUCACCCAUGUGACACGUGAUGGCUGGUUAGAAGGCGCGAAUC [Eternabot (L1) Solution 37] (Eterna round: R97, puzzle: Exclusion 5)
apparent KD of MS2 coat protein (input ligand: FMN 200 uM): 17.1 nM | apparent KD of MS2 coat protein (input ligand: none): 17.4 nM

AACACUGUAGGAUAUCAUGAACUGGACUUGAGGAUCACCCAAGUGUAUCGUGGAGUGCCGUGAGAAGGACGGAUUA [Erleen] (Eterna round: R97, puzzle: Exclusion 5)
apparent KD of MS2 coat protein (input ligand: FMN 200 uM): 28.1 nM | apparent KD of MS2 coat protein (input ligand: none): 27.2 nM

UACAUGAGGAUCACCCAUGUUUUGUCGUGUAUGGUAUUUAUCUAGGAUAUCAAUGUAGUUAUUUAUGAGAAGGAGAAUAUUAAU [JMF's solution 41] (Eterna round: R96, puzzle: Exclusion NG 3)
apparent KD of MS2 coat protein (input ligand: FMN 200 uM): 43 nM | apparent KD of MS2 coat protein [4]: 37.5 nM | apparent KD of MS2 coat protein (input ligand: none): 50.8 nM

GUGUAGCUAGGAUAUACAUGAGGAUCACCCAUGUGAAUAAGAUAGAAUAAGAUAAAGUGUAGAAGGAGUAGUGU [Excluse me!!! 15 - Jieux - Exclusion 3] (puzzle: Exclusion 3)
apparent KD of MS2 coat protein [1]: 18.2 nM | apparent KD of MS2 coat protein [2]: 18.2 nM | apparent KD of MS2 coat protein [3]: 18.7 nM

AACAUUCCAGAAAGGAAUGACAUGAGGAUCACCCAUGUAGGGAUCUAUGCUAAGUUGCUCGUCGCCGCUCCACAAAG [Eternabot (Original) Solution 5] (Eterna round: R97, puzzle: Sensor, turn-off variant 1)
apparent KD of MS2 coat protein (input ligand: FMN 200 uM): 431 nM | apparent KD of MS2 coat protein (input ligand: none): 362 nM

GGCGUGUCGCGAGGAUAUUCAAACGGACAUGAGGAUCACCCAUGUGAAAGGAAUGUCGAGGUUAUGGAGAAGGCGUUCACGCCG [Qubizace] (Eterna round: R96, puzzle: Exclusion NG 2)
apparent KD of MS2 coat protein (input ligand: FMN 200 uM): 549 nM | apparent KD of MS2 coat protein [4]: 92 nM | apparent KD of MS2 coat protein (input ligand: none): 153 nM

UCGCCGCCCUUGGGCGGCGACAUGAGGAUCACCCAUGUCAAGCUUUUUGCUCGUUUUAUUGCCGGCCUUGGCCGGCU [Olib_2] (Eterna round: R97, puzzle: Sensor, turn-off variant 1)
apparent KD of MS2 coat protein (input ligand: FMN 200 uM): 28.3 nM | apparent KD of MS2 coat protein (input ligand: none): 33.2 nM

UUCUGGACAGGAUAUGUACUUGAGCACUUGAGGAUCACCCAAGUCCUCAAGUACUCAGGCACAGAAGGGUUAAUUU [jl-ex5.4.65 ViennaUCT mod] (Eterna round: R97, puzzle: Exclusion 5)
apparent KD of MS2 coat protein (input ligand: FMN 200 uM): 110 nM | apparent KD of MS2 coat protein (input ligand: none): 71.9 nM

CUUUUGUGAGGAUAUUAGUAGUAAAUAAAUAAAAUUACUACUGAGAAGGCACAUGAGGAUCACCCAUGUUCCUC [salish99_ex4_r3_041] (Eterna round: R96, puzzle: Exclusion 4)
apparent KD of MS2 coat protein (input ligand: FMN 200 uM): 424 nM | apparent KD of MS2 coat protein [4]: 32.8 nM | apparent KD of MS2 coat protein (input ligand: none): 35.4 nM

UGAGUGCUGCGAGGAUAUACAUGAGGAUCACCCAUGUAAUCGUGUGAGGCAAAGCCUCACACGAAGUAGAAGGCGCAGUACUCU [Mat - Exclusion NG 2 - Mod of JL - D17] (Eterna round: R96, puzzle: Exclusion NG 2)
apparent KD of MS2 coat protein (input ligand: FMN 200 uM): 16 nM | apparent KD of MS2 coat protein [4]: 11.4 nM | apparent KD of MS2 coat protein (input ligand: none): 18.5 nM

UUUUGACAAGCGAGAUCCUACAUGAGGAUCACCCAUGUUGACCAUGGUUUCCAUGGUCUUUUUGCUCGUCUUGUGUG [jl TITIN mod 4] (Eterna round: R97, puzzle: Sensor, turn-off variant 1)
apparent KD of MS2 coat protein (input ligand: FMN 200 uM): 21.5 nM | apparent KD of MS2 coat protein (input ligand: none): 21.8 nM
